Target: T1, rDHX36 (G4R1/RHAU) (UniProt Q9H2U1 1-1008)
T1 sequence: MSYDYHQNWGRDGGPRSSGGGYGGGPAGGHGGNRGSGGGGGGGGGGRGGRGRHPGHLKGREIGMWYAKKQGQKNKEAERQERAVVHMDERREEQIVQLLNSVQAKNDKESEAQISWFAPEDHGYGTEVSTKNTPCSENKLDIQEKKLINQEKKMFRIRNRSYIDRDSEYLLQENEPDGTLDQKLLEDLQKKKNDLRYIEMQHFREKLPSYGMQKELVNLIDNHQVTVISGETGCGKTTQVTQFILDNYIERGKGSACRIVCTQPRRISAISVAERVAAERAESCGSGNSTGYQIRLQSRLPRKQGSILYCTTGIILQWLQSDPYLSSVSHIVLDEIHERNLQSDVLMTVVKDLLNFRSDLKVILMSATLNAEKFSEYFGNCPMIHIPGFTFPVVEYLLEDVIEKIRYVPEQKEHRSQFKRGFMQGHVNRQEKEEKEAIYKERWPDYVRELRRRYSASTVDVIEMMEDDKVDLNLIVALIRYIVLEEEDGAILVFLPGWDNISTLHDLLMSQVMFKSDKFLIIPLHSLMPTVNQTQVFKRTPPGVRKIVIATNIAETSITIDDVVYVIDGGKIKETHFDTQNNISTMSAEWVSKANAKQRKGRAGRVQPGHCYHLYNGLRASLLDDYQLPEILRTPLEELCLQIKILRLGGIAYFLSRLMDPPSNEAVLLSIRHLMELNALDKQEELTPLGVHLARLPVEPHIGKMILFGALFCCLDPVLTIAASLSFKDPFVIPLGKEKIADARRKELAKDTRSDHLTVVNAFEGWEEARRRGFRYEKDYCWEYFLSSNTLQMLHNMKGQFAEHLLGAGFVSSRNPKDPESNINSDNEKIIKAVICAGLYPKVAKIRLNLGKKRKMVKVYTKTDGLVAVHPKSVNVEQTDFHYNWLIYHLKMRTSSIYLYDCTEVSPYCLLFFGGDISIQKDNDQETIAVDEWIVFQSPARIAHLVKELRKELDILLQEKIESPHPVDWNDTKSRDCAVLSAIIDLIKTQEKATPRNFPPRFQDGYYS
Assay: EMSA

GGGGCCGGGGCCGGGGCCGGGGCCGGGGCCGTTAGAATTTTT (structured_DNA) [(G4C2)5-DNA, annealed with KCl (G4)]: binds.
